Entries after “also recorded” stand apart in the source; their conditions may differ. Marks after values point to notes of the source that are not given here. Blank lines part the entries; values can stand above or below the molecule they belong to. Ends that are not written are not given here.
How the values were obtained:
human FPRL1 = target: T1, human FPRL1 (Homo sapiens, UniProt P25090); assay: Migration of FPRL1-L1.2 cells; format: cell-based; settings: for migration of FPRL1 expressing cells: FPRL1-L1.2 cells, ChemoTx
T1 construct: Full length cDNA encoding FPRL1 was cloned, using the polymerase chain reaction (PCR), from genomic DNA isolated from undifferentiated HL-60 cells; expressed in transfected cells; linearized FPRL1/pcDNA3.1, electroporation
T1 sequence (P25090 1-351): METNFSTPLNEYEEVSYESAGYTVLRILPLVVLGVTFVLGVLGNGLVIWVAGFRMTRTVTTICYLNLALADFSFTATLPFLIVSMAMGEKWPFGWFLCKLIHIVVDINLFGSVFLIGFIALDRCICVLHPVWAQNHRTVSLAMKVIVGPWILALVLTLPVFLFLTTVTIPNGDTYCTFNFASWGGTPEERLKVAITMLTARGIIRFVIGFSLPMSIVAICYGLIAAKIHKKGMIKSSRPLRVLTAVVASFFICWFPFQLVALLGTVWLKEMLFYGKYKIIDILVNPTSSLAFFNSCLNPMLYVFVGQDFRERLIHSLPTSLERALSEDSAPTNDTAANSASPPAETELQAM
Description: (§1) Migration assays were performed on monocytes and neutrophils. Human monocytes and neutrophils (prepared as in Exampe 2) were harvested and resuspended in chemotaxis medium (CM). The CM consisted of Hank's buffered salt solution (Gibco, Mass.) containing CaCl2 (1 mM) and MgSO4 (1 mM) with added 0.1% BSA (Sigma, St. Louis, Mo.). The assays were performed in 96-well ChemoTx® microplates (Neuroprobe, Mass.). Leukotactin, MlP-1α and chemokines (CKβ8(1-99), CKβ8(25-99), CKβ8-1(1-116) or CKβ8-1(25-116), prepared as in Example 1) were added to the lower wells (final volume 29 μL), and 20 μL of cell suspension (5×10^6 cells/mL for monocytes; 2.5×10^6 cells/mL for neutrophils) added to the polycarbonate filters (5 μm pore size for monocytes; 3 μm pore size for neutrophils). After incubation for 90 min (37° C., 100% humidity, 5% CO2), cells were removed from the upper surface of the filter by scraping. Cells that migrated into the lower chamber were quantified using the Quant cell proliferation assay kit (Molecular Probes, Oreg.).
(§2) The ability of CKβ8-1 (25-116) to elicit the migration of the FPRL1 expressing cells was examined. Test conditions were as in Example 5.
The chemotactic activity of chemokines (CKβ8(1-99) and CKβ8(25-99), SHAAGtides (SEQ ID NO:1 and SEQ ID NO:2) and W peptides 1 and 2 (obtained as in Example 6) on FPRL1-L1.2 cells was determined in migration assays. The chemokines were prepared as in Example 1. The SHAAGtide sequences SEQ ID NO:1 and SEQ ID NO:2 were prepared as in Example 8. FPRL1-L1.2 cells were prepared as in Example 6.
The migration assays were performed in 96-well ChemoTx® microplates (Neuroprobe) using the protocol described in Example 5.

mononuclear cells = assay: Mononuclear cell infiltration into the dermis after intradermal injection; format: in vivo, Rhesus macaques; settings: for cell infiltration, in words: summary of Table 18
Description: Different amounts (8, 20, or 60 μg in 100 μl PBS) of different polypeptides (see Table 18) were injected intradermally in Rhesus macaques under anesthesia. Twenty-four and 48 hours later, 6 mm skin punch biopsies were taken using aseptic technique and then bisected. One portion of the biopsy was embedded in OCT compound, flash frozen in liquid nitrogen and stored at −70° C. The other portion was immersed in formalin and embedded in paraffin wax; subsequently, sections cut on a microtome were stained with hematoxylin and eosin and then microscopically examined for cell infiltration into the dermis (Table 18). As a negative control, monkeys were injected with PBS lacking any polypeptides.
Mononuclear cell infiltration was scored on a scale of 0 to 5:0, very mild perivascular mononuclear inflammatory infiltration throughout the dermis; 1, a mild perivascular mononuclear inflammatory infiltrate seen throughout the dermis; 2, a mild/moderate perivascular mononuclear inflammatory infiltrate seen throughout the dermis; 3, a moderate perivascular mononuclear inflammatory infiltrate seen throughout the dermis; 4, an extensive perivascular mononuclear inflammatory infiltrate seen throughout the dermis; 5, a florid perivascular mononuclear inflammatory infiltrate seen throughout the dermis. intermediate scores are indicates, e.g., “⅔” represents a score between 2 and 3.

CCR1 = target: T2, CCR1 (Homo sapiens, UniProt P32246); assay: 125I-MIP-1α binding competition, HEK293-CCR1 cells
T2 construct: full length cDNA encoding CCR1 was cloned by the polymerase chain reaction (PCR) from genomic DNA isolated from human peripheral blood cells; expressed in transfected cells; pcDNA3.1 vector)
T2 sequence (P32246 1-355): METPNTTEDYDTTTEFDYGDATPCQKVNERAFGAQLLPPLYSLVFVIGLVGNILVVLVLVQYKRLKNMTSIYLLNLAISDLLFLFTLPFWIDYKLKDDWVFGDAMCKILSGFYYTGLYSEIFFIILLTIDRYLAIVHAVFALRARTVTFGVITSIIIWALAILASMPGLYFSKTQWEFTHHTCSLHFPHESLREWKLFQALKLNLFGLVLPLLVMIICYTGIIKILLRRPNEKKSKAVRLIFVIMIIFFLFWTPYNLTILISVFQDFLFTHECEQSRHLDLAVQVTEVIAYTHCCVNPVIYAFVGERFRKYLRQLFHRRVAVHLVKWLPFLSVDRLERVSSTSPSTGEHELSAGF
Description: The binding characteristics of CCL23 variants was compared in human CCR1 expressing cells. […] Reactions mixtures were aspirated onto PEI-treated GF/B glass filters using a cell harvester (Packard). The filters were washed twice (25 mM HEPES, 500 mM NaCl, 1 mM CaCl2, 5 mM MgCl2, adjusted to pH 7.1). Scintillant (MicroScint-10; 35 μl) was added to dried filters and the filiters counted in a Packard Topcount scintillation counter. Data were analyzed and plotted using Prism software (GraphPad Software, San Diego, Calif.).

pariental L1.2 cells = assay: Migration of parental L1.2 cells; format: cell-based, murine
Description: as §1, §2

[1] = 60 μg intradermally, 24 hours, scale 0 (very mild) to 5 (florid)

Molecule: MLWRRKIGPQMTLSHAAY [SEQ ID NO: 6]
Mononuclear cell infiltration score (mononuclear cells; 8 μg, 24 hours): 0
Mononuclear cell infiltration score (mononuclear cells; 8 μg, 48 hours): 0
Mononuclear cell infiltration score (mononuclear cells; 20 μg, 24 hours): 2*
Mononuclear cell infiltration score (mononuclear cells; 20 μg, 48 hours): 0
Mononuclear cell infiltration score (mononuclear cells; [1]): 0
Mononuclear cell infiltration score (mononuclear cells; 60 μg, 48 hours): 0
cell infiltration, in words (mononuclear cells): moderately strong infiltration in one of the two animals

B1: CKβ8-1(1-116): alternatively spliced form of CKβ8, 116 amino acids, human recombinant chemokine (protein, listed as Homo sapiens)
chain: RVTKDAETEFMMSKLPLENPVLLDMLWRRKIGPQMTLSHAAGFHATSADCCISYTPRSIPCSLLESYFETNSECSKPGVIFLTKKGRRFCANPSDKQVQVCMRMLKLDTRIKTRKN
fold less potency than CKβ8(1-99) (CCR1; displacement of bound 125I-MIP-1α from CCR1): 3-4 fold

More lines, main results first:

migration of FPRL1 expressing cells (human FPRL1): migrated the transfectants
Molecule: MLWRRKIGPQMTLSHAAG [SEQ ID NO: 1]

IC50 increase of truncated variant versus full-length variant (CCR1; HEK293-CCR1): one fold
migration of FPRL1 expressing cells (human FPRL1): migrated the transfectants
EC50 (human FPRL1; FPRL1 expressing L1.2 cells, read-out: half-maximal cell migration): 30 nM
B2: CKβ8-1(25-116): novel NH2-terminal truncated form of CKβ8-1, SEQ ID NO: 16, human recombinant chemokine (protein, listed as Homo sapiens)
chain: MLWRRKIGPQMTLSHAAGFHATSADCCISYTPRSIPCSLLESYFETNSECSKPGVIFLTKKGRRFCANPSDKQVQVCMRMLKLDTRIKTRKN
migration of parental L1.2 cells (pariental L1.2 cells): did not migrate
migration of FPRL1 expressing cells (human FPRL1; listed as CKβ8-1 (25-116)): migrated in a bell-shaped dose-dependent manner; also recorded: higher than observed with the synthetic peptides WKYMVm and WKYMVM
Mononuclear cell infiltration score (mononuclear cells; 20 μg, 24 hours): 0
Mononuclear cell infiltration score (mononuclear cells; 20 μg, 48 hours): 0
Mononuclear cell infiltration score (mononuclear cells; [1]): 0
Mononuclear cell infiltration score (mononuclear cells; 60 μg, 48 hours): 0
cell infiltration, in words (mononuclear cells): no infiltration
